Assay results as given in paper PMC7334207, “Select amino acids in DGCR8 are essential for the UGU-pri-miRNA interaction and processing” (Communications Biology, 2020).

T1: G478del-mut1 (Homo sapiens, UniProt Q8WYQ5 285-478, W461A;A462G;E463Q;del370-429)
T1 sequence: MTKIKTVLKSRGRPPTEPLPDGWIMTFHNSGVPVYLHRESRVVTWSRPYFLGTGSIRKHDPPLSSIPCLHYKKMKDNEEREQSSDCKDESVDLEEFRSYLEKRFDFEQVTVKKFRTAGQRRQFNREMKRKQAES

T2: G478del WT (Homo sapiens, UniProt Q8WYQ5 285-478, del370-429)
T2 sequence: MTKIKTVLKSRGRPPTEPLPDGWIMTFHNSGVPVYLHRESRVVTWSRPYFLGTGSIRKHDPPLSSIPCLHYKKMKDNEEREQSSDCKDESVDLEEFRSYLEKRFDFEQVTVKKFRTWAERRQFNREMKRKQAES

T3: G478 (Rhed) (Homo sapiens, UniProt Q8WYQ5 285-478)
T3 sequence: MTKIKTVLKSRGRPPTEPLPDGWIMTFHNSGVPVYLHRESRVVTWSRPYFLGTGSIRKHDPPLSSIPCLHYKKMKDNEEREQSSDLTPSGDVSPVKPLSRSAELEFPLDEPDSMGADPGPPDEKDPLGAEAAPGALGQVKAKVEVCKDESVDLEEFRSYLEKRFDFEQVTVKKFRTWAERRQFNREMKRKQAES

T4: G478del WT-mut1 hybrid dimer (Homo sapiens, UniProt Q8WYQ5;Q8WYQ5 285-369+430-478;285-369+430-478, internal_change;W461A;A462G;E463Q;internal_change)
T4 sequence 1: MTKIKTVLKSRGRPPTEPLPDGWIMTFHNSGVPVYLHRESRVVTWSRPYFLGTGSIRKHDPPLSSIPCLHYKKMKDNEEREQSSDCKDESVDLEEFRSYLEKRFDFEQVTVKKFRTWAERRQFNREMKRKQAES
T4 sequence 2: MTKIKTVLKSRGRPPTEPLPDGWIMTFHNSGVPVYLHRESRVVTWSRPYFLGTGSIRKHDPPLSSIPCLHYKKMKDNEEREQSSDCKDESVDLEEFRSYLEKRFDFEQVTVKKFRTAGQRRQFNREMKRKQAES

B1: G460del, G478del with the 461–478 region deleted (domain or fragment, human, UniProt Q8WYQ5 285-460, looked up)
chain: MTKIKTVLKSRGRPPTEPLPDGWIMTFHNSGVPVYLHRESRVVTWSRPYFLGTGSIRKHDPPLSSIPCLHYKKMKDNEEREQSSDCKDESVDLEEFRSYLEKRFDFEQVTVKKFRT
notes: Lost its hemin-associating ability; source: E. coli, purified (as G478 and its variants)
B2: G478del, G478 (DGCR8 amino acids 285–478) with the 370–429 region deleted (domain or fragment, human, UniProt Q8WYQ5 285-478, looked up)
chain: MTKIKTVLKSRGRPPTEPLPDGWIMTFHNSGVPVYLHRESRVVTWSRPYFLGTGSIRKHDPPLSSIPCLHYKKMKDNEEREQSSDCKDESVDLEEFRSYLEKRFDFEQVTVKKFRTWAERRQFNREMKRKQAES
notes: Associated with hemin; Theoretical dimer mass ~30 kDa as printed; also called G478del–WT; source: E. coli, purified (as described for G478)
B3: G478del-mut1, G478del with AGQ in the 461–463 region instead of WAE (domain or fragment, human, UniProt Q8WYQ5 285-478, looked up)
chain: MTKIKTVLKSRGRPPTEPLPDGWIMTFHNSGVPVYLHRESRVVTWSRPYFLGTGSIRKHDPPLSSIPCLHYKKMKDNEEREQSSDCKDESVDLEEFRSYLEKRFDFEQVTVKKFRTAGQRRQFNREMKRKQAES
notes: Associated with hemin; source: E. coli, purified (as described for G478del)
B4: 10L10_UGU (structured_RNA)
RNA: ACUGGAAGCUGUGAAAGAUGGGCUUUCAGU
B5: 10L10_noUGU (structured_RNA)
RNA: ACUGGAAGCCAAGAAAGAUGGGCUUUCAGU
B6: G478, Rhed (RNA-binding heme domain) of DGCR8, amino acids 285–478 (domain or fragment, human, UniProt Q8WYQ5 285-478, looked up)
chain: MTKIKTVLKSRGRPPTEPLPDGWIMTFHNSGVPVYLHRESRVVTWSRPYFLGTGSIRKHDPPLSSIPCLHYKKMKDNEEREQSSDLTPSGDVSPVKPLSRSAELEFPLDEPDSMGADPGPPDEKDPLGAEAAPGALGQVKAKVEVCKDESVDLEEFRSYLEKRFDFEQVTVKKFRTWAERRQFNREMKRKQAES
notes: Associated with hemin; also called Rhed dimer; G478 dimer; source: E. coli, purified (as described for the G4 fragments: Ni2+-agarose, SP-sepharose; then Superdex 200)

Tests used:
[1] = biological target: the molecule itself; experiment: SEC-MALS; molecular mass of the purified protein estimated with a Multi-Angle Light Scattering detector (miniDAWN TREOS, Wyatt Technology Corporation); compared with the theoretical mass of a dimer
G478del-mut1 = biological target: T1, G478del-mut1; experiment: EMSA; 50 mM Tris-HCl pH 7.5, 250 mM NaCl, 10% glycerol, 0.2 mg/ml BSA, 1 mM DTT, 2 mM EDTA; 1 uM RNA in 10 uL; on ice 60 min; 4% native PAGE at 4 C, ethidium bromide; conditions: protein: recombinant; tags: 10xHis; chain copies: 2; hairpin
G478del WT = biological target: T2, G478del WT; experiment: as above; conditions: protein: recombinant; chain copies: 2; hairpin
G478 (Rhed) = biological target: T3, G478 (Rhed); experiment: as above; conditions: protein: recombinant; (purified as for G4; theoretical dimer 44 kDa implies no GFP); chain copies: 2; hairpin
[2] = biological target: T4, G478del WT-mut1 hybrid dimer; experiment: as above; conditions: protein: recombinant; tags: 10xHis on mut1 subunit; protein G on WT subunit removed by HRV 3C; copies: 1;1; hairpin

Row | Binder | stoichiometry N [1] | Kd (G478del-mut1) | Kd (G478del WT) | Kd (G478 (Rhed)) | Kd [2]
1 | B1 | 2 | – | – | – | –
2 | B2 | 2 | – | – | – | –
3 | B3 | 2 | – | – | – | –
4 | B4 | – | 9.03 ± 0.61 µM | 5.73 ± 0.39 µM | 3.43 ± 0.29 µM | 5.43 ± 0.46 µM
5 | B5 | – | 13.8 ± 0.39 µM | 16.8 ± 1.48 µM | 8.57 ± 0.96 µM | 11.5 ± 0.77 µM
6 | B6 | 2 | – | – | – | –
